Sequences and labels used below:
B1: Compound 8 (peptide)
chain: cyclo(RGDL[dP][NMeK]GL)
SMILES: CC(C)C[C@@H]1NC(=O)CNC(=O)[C@H](CCCCN)N(C)C(=O)[C@H]2CCCN2C(=O)[C@H](CC(C)C)NC(=O)[C@H](CC(=O)O)NC(=O)CNC(=O)[C@H](CCCNC(=N)N)NC1=O

Usually IC50 stands for the concentration needed to halve the response being measured.

Side-chain parts run from the residue outwards. [ ]: non-standard residue; d: D form. NMeK = CN[C@@H](CCCCN)C(=O)O; Ahx = NCCCCCC(=O)O; BDPFL = dye Where only a bound is given, the exact number is not on record here.

integrin α5β1, sequence (P08648 42-1049, chain 1 of 2): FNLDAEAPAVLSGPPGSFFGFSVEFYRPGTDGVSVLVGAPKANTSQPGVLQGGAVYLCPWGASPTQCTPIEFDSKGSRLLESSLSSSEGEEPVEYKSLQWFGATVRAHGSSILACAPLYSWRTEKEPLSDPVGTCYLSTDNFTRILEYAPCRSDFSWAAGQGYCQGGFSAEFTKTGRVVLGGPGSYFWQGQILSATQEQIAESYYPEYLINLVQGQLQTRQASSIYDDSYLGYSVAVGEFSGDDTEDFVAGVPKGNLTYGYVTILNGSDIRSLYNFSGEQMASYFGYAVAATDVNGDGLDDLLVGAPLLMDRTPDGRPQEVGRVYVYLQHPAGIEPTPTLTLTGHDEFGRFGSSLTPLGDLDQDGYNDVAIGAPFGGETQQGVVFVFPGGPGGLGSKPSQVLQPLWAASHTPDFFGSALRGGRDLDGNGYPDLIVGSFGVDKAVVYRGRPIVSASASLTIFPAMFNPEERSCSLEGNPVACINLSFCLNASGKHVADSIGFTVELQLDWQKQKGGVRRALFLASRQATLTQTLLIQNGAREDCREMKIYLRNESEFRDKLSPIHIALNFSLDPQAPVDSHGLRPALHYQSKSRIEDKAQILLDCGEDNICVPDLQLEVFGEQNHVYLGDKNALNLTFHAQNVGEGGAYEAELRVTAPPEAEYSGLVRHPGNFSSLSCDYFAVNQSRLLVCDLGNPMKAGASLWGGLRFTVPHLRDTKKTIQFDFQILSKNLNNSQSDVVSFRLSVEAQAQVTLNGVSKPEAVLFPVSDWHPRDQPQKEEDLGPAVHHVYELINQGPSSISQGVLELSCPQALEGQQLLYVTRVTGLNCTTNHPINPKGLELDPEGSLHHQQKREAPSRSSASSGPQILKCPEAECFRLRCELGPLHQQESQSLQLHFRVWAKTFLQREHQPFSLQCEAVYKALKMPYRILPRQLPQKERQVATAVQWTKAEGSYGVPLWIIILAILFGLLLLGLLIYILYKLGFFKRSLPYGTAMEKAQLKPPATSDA
integrin α5β1, sequence (chain, as listed by the source, chain 2 of 2): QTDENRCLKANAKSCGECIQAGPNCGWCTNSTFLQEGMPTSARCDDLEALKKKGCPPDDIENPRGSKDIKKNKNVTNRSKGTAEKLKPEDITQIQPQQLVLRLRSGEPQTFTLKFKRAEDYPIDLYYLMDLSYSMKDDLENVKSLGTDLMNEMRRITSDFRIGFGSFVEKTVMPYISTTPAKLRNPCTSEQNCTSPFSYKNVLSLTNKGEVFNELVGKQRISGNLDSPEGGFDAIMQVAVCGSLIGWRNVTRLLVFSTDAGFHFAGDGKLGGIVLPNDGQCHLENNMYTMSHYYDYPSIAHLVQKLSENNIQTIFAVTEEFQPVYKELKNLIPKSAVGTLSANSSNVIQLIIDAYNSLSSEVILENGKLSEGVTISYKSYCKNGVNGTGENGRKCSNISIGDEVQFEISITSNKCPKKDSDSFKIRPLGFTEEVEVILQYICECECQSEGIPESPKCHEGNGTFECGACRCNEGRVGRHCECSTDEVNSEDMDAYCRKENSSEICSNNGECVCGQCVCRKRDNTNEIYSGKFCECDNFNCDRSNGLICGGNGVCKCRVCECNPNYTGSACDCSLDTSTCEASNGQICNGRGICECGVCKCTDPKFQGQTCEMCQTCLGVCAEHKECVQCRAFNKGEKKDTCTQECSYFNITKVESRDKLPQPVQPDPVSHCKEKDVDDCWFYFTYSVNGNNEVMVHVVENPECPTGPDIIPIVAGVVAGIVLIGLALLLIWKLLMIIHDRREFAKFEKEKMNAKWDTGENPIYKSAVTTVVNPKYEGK

The target of the first assay is T1, integrin αvβ3 (human, UniProt P06756).
T1 chain 1: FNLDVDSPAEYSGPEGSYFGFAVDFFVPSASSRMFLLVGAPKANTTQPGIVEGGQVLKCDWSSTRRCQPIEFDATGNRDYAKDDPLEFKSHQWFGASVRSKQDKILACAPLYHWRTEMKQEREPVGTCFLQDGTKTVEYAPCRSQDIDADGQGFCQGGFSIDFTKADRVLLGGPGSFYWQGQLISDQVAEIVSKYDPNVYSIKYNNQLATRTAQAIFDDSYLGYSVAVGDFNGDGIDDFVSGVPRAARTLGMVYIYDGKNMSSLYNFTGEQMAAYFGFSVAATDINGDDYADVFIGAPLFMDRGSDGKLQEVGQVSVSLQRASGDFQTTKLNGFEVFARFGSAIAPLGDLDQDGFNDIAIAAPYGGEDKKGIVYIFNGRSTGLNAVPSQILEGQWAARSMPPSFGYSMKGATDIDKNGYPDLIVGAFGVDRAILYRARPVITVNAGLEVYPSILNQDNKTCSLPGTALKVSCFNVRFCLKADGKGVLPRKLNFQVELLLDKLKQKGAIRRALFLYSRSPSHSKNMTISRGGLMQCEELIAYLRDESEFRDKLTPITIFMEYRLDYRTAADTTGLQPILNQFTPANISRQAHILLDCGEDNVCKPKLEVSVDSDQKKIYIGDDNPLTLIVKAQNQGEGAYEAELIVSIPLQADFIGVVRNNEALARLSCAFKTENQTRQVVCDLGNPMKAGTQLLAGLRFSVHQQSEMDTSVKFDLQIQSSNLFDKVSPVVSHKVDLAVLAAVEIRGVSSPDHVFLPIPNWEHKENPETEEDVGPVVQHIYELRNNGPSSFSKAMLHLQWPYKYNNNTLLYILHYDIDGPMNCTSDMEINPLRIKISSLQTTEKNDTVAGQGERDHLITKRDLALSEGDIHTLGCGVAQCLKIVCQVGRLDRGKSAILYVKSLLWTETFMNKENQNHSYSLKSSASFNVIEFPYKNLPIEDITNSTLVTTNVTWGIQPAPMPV
T1 chain 2: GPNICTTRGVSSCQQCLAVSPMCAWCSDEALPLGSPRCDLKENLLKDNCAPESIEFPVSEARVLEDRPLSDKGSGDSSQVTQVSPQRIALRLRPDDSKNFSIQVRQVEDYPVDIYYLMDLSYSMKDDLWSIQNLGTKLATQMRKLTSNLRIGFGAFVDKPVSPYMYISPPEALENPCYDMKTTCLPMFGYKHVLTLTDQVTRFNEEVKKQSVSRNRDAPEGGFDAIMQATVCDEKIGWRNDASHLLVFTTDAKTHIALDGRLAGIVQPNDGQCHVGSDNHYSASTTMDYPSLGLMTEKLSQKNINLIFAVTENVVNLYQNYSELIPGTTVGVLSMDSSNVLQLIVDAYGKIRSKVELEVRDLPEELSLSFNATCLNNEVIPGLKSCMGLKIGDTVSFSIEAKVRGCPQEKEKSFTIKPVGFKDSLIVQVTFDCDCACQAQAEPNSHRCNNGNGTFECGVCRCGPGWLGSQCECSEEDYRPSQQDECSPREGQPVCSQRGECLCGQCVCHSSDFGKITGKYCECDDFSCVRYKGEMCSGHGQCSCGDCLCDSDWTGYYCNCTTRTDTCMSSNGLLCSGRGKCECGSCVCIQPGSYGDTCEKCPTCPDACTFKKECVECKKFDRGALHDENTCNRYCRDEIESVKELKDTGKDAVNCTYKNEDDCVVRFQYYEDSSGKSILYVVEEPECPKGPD
The experiment in a line: competition.
Molecule B1 had an IC50 greater than 1000 nM.

Consider cyclo(RGDL[dP]PGL) [Compound 2], for which the half-inhibitory concentration (IC50) is greater than 1000 nM.

Another assay concerns the target T2, integrin αvβ8 (human, UniProt P06756).
T2 chain 1: T1 chain 1
T2 chain 2: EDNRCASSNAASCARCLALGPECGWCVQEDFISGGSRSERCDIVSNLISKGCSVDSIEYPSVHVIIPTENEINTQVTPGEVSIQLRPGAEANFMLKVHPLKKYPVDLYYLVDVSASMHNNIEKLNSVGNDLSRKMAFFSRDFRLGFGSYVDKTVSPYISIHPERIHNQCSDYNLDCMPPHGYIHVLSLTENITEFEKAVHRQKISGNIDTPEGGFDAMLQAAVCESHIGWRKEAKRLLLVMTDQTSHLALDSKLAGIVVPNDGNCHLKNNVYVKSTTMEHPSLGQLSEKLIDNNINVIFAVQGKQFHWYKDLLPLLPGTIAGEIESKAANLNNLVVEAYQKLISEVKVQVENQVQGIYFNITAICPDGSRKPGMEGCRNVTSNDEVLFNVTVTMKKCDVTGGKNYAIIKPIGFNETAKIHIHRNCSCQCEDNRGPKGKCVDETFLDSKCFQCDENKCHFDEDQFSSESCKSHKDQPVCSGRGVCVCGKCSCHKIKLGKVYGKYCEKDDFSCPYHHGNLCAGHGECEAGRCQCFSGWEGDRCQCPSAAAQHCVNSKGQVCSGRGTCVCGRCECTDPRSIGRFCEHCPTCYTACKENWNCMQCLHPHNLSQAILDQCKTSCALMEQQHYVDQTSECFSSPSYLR
The experiment in a line: competition.
Molecule cyclo(RGDL[dP][NMeK]([Ahx-Ahx-BDPFL])GL) [Compound 9c (9-Ahx-Ahx-BDPFL)] returned an IC50 of 1.52 nM.

cyclo(RGD[dF]K) (also: Ahx-BDPFL conjugate, attachment site not given here) [Compound 13 (Table 3) c(RGDfK)-Ahx-BDPFL]: the IC50 came out at 258 nM. Against the preceding molecule, the IC50 is about 170-fold higher.

Regarding cyclo(GLRVDL[dP][NMeK]([Ahx-BDPFL])) [Compound 11 (Table 3) c(GLRVDLp(NMe)K)-Ahx-BDPFL], the half-inhibitory concentration (IC50) turned out to be 1120 nM.

Another assay concerns the target integrin α5β1 (human, UniProt P08648). The experiment in a line: competition.
The molecule B1 had an IC50 greater than 1000 nM.

For the molecule cyclo(RGDL[dP]PGL) [Compound 2], the IC50 was greater than 1000 nM.

In another assay the target is T1, integrin αvβ3. The experiment in a line: competition. The source holds these as a separate data set.
cyclo(RGDL[dP][NMeK]([Ahx-Ahx-BDPFL])GL) [Compound 9c (9-Ahx-Ahx-BDPFL)] returned a half-inhibitory concentration (IC50) of 500 nM.

On to cyclo(RGD[dF]K) (also: Ahx-BDPFL conjugate, attachment site not given here) [Compound 13 (Table 3) c(RGDfK)-Ahx-BDPFL], for which the half-maximal inhibitory concentration (IC50) came out at 2.55 nM. Against the preceding molecule, the IC50 is about 200-fold lower.

Regarding cyclo(GLRVDL[dP][NMeK]([Ahx-BDPFL])) [Compound 11 (Table 3) c(GLRVDLp(NMe)K)-Ahx-BDPFL], the IC50 is greater than 10000 nM.

Another assay concerns the target T3, integrin αvβ5 (human, UniProt P06756).
T3 chain 1: T1 chain 1
T3 chain 2: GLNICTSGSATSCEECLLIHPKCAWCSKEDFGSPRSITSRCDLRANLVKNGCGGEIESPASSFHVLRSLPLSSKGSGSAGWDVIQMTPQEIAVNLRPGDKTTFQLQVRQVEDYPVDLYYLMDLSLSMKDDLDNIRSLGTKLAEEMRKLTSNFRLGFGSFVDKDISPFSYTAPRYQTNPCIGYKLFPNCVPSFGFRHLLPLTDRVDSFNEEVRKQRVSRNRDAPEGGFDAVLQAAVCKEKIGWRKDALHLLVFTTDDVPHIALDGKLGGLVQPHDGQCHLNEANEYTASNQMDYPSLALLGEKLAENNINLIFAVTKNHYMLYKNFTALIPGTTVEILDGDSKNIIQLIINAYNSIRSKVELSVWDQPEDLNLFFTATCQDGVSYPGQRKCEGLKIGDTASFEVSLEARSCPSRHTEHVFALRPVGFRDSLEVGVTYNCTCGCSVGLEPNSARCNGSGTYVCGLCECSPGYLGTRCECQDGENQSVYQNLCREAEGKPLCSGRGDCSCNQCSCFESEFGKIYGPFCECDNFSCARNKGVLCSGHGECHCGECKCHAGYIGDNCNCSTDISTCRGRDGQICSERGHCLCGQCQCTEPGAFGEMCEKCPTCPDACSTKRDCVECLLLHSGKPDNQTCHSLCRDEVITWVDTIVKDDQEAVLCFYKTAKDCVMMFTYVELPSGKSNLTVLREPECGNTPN
As to the kind of experiment: competition.
The molecule B1 returned an IC50 greater than 1000 nM.

For the molecule cyclo(RGDL[dP]PGL) [Compound 2], the IC50 is greater than 1000 nM.

The target of another assay is T2, integrin αvβ8. The experiment in a line: competition. The source holds these as a separate data set.
As for B1, the IC50 was 6.5 nM.

cyclo(RGDL[dP]PGL) [Compound 2] had an IC50 of 0.93 nM.

The target in the next assay is T4, integrin αvβ6 (human, UniProt P06756).
T4 chain 1: T1 chain 1
T4 chain 2: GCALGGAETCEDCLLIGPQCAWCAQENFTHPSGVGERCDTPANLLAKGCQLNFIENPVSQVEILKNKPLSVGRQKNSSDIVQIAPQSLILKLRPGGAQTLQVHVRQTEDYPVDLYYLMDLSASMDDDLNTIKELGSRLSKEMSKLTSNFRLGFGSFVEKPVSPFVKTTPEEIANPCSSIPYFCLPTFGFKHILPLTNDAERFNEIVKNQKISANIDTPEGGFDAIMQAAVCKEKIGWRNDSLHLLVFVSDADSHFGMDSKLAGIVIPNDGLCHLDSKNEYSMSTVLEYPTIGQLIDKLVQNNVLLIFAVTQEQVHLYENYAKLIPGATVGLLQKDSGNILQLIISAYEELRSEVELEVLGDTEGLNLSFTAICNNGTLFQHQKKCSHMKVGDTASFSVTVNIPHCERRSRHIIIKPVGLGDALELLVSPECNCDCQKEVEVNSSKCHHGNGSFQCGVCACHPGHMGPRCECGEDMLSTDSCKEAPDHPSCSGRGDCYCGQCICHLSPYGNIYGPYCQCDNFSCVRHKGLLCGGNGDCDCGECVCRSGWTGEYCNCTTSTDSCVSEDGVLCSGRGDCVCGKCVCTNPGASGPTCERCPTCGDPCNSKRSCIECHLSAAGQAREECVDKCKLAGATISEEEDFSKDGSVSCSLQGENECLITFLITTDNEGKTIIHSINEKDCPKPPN
The experiment in a line: competition.
For the molecule cyclo(RGDL[dP][NMeK]([Ahx-Ahx-BDPFL])GL) [Compound 9c (9-Ahx-Ahx-BDPFL)], the IC50 was determined as 64 nM.

As for cyclo(RGD[dF]K) (also: Ahx-BDPFL conjugate, attachment site not given here) [Compound 13 (Table 3) c(RGDfK)-Ahx-BDPFL], the IC50 was determined as 7.8 nM.

Turning to cyclo(GLRVDL[dP][NMeK]([Ahx-BDPFL])) [Compound 11 (Table 3) c(GLRVDLp(NMe)K)-Ahx-BDPFL], the IC50 was greater than 10000 nM.

A further assay has as its target integrin αIIbβ3 (human, UniProt P08514). As to the kind of experiment: competition.
Turning to B1, the IC50 is greater than 1000 nM.

cyclo(RGDL[dP]PGL) [Compound 2]: the IC50 was greater than 1000 nM.

The target of the next assay is T4, integrin αvβ6. As to the kind of experiment: competition. The source holds these as a separate data set.
Turning to B1, the IC50 stood at 201 nM.

Molecule cyclo(RGDL[dP]PGL) [Compound 2] displayed an IC50 of 210 nM. The IC50 values of the last two molecules are within 1.5-fold of each other.

The values above are taken from patent US20200087347 (published 2020).
